For two substances, Kd, koff and kon results are on record in publication PMC4666417.

This experiment has as its target eEF1A1 (eukaryotic elongation factor 1 subunit A1), MYC/DDK-tagged (human) (UniProt P68104). The experiment in a line: BLI; biotinylated eEF1 subunit (eEF1A1, eEF1B, eEF1D or eEF1G) immobilised on streptavidin biosensor; RT subunits, RT heterodimer, Gag or RTp66 mutants as analytes at 90, 30 and 10 nM (mutants at 90 nM); kinetic buffer 1 mM phosphate, 15 mM NaCl, 0.002% Tween-20, 0.1 mg/ml gelatine, 1000 rpm, OctetRed.

Sequence of eEF1A1 (eukaryotic elongation factor 1 subunit A1), MYC/DDK-tagged (human) (P68104 whole entry): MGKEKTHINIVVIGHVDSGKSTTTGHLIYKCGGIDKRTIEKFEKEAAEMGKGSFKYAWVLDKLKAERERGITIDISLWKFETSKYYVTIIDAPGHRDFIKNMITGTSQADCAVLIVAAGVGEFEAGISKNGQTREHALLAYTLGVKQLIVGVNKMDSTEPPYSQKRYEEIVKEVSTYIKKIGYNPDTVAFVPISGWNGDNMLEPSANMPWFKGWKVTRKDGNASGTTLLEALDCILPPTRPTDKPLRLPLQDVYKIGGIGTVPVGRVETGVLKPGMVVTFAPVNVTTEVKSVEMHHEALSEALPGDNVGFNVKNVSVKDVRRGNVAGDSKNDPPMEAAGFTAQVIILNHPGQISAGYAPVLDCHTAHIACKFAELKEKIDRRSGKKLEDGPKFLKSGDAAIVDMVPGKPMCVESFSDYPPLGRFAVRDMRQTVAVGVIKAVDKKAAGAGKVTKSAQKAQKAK

Consider “HIV-1 RT p51, 6xHis-tagged, purified (from UniProt P04585 588-1027) (natural protein; other documents disagree on this pair)”, for which the Kd is 4.13 nM, the koff worked out at 0.000185 s⁻¹ and the association rate constant (kon) came out at 44800 M⁻¹ s⁻¹.

Turning to “HIV-1 RT p66/p51 heterodimer, purified (from UniProt P04585 588-1147; P04585 588-1027) (complex)”, the Kd worked out at 3.75 nM, the off-rate constant (koff) was found to be 0.000207 s⁻¹ and the association rate constant (kon) amounted to 55200 M⁻¹ s⁻¹.
